These results are taken from article PMC10901488 (Chemical Science, 2024).

The conditions of series [1]: due to its hydrophobicity; cited from earlier work.
Series [2] is described as follows: Solubilization test. The series is classed as physicochemical. To be noted: model peptides before tagging, or product after reaction with Mal-(EK)3.

As for insulin A chain: insulin A chain, in series [1], the solubility result was “poor solubility”.
With “1: C-terminal segment of IL-2 (residue 105–133) (CEYADETATIVEFLNRWITFCQSIISTLT; UniProt P60568 125-153, looked up, fragment) [compound 1]”, the “solubility (in words)” value in series [2] is “poor solubility”.
